Data from PMC9482650, “Quantitative fragmentomics allow affinity mapping of interactomes” (Nature Communications, 2022).

T1: PARD3B_1, Q8TEW8
T1 sequence (Q8TEW8 196-299, limits assumed, looked up): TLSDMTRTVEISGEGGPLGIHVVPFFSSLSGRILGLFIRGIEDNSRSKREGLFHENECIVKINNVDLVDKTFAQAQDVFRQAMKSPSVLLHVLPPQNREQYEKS

T2: MPDZ_10, O75970
T2 sequence (O75970 1624-1722, limits assumed, looked up): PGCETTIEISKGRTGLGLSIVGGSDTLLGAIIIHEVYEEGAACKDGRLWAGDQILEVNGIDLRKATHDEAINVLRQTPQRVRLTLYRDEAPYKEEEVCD

T3: TIAM2, Q8IVF5
T3 sequence (Q8IVF5 885-986, limits assumed, looked up): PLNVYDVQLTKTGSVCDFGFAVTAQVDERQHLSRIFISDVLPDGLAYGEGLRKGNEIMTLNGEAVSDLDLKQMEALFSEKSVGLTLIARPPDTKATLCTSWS

T4: NHERF3_1, Q5T2W1
T4 sequence (Q5T2W1 4-100, limits assumed, looked up): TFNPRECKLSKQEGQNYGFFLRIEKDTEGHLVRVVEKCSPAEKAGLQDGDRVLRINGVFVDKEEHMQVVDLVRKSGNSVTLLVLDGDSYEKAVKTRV

T5: PDZRN3_1, Q9UPQ7
T5 sequence (Q9UPQ7 244-349, limits assumed, looked up): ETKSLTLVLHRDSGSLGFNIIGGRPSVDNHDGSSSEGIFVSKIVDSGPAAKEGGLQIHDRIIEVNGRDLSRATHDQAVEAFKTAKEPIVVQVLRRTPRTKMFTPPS

T6: DLG3_3, Q92796
T6 sequence (Q92796 374-475, limits assumed, looked up): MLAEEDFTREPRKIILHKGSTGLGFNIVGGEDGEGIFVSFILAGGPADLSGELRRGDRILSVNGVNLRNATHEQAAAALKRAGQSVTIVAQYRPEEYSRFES

T7: APBA1_2, Q02410
T7 sequence (Q02410 742-832, limits assumed, looked up): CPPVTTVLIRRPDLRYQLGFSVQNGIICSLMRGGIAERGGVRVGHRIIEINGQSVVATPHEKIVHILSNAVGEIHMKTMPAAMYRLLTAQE

T8: APBA2_1, Q99767
T8 sequence (Q99767 563-664, limits assumed, looked up): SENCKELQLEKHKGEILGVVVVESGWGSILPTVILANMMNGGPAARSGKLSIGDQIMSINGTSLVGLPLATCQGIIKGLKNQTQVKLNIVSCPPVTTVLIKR

T9: SNTG2, Q9NY99
T9 sequence (Q9NY99 68-166, limits assumed, looked up): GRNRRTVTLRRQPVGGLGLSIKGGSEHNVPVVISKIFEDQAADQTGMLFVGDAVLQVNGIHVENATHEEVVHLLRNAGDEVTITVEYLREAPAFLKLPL

T10: PTPN13_1, Q12923
T10 sequence (Q12923 1088-1188, limits assumed, looked up): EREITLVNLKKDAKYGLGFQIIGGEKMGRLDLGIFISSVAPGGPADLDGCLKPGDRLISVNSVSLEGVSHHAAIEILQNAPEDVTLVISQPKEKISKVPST


Columns and labels:
Assay in all cases: holdup assay
Design in all cases: key: below the threshold = too weak to quantify, mostly under pKd 3.1 to 4
Conditions in all cases: plain residues with an end cap or a label only (N-terminal biotin on a linker: ado-ado)
TJP1_3, Q07157 = target: TJP1_3, Q07157
PARD3B_1, Q8TEW8 = target: T1, PARD3B_1, Q8TEW8
FRMPD2_2, Q68DX3 = target: FRMPD2_2, Q68DX3
MPDZ_10, O75970 = target: T2, MPDZ_10, O75970
GRIP2_5, Q9C0E4 = target: GRIP2_5, Q9C0E4
TIAM2, Q8IVF5 = target: T3, TIAM2, Q8IVF5
NHERF3_1, Q5T2W1 = target: T4, NHERF3_1, Q5T2W1
GRIP2_3, Q9C0E4 = target: GRIP2_3, Q9C0E4
PARD3_3, Q8TEW0 = target: PARD3_3, Q8TEW0
LAP2, Q96RT1 = target: LAP2, Q96RT1
GORASP1, Q9BQQ3 = target: GORASP1, Q9BQQ3
HTRA2, O43464 = target: HTRA2, O43464
NHERF2_2, Q15599 = target: NHERF2_2, Q15599
PDZRN3_1, Q9UPQ7 = target: T5, PDZRN3_1, Q9UPQ7
LNX1_2, Q8TBB1 = target: LNX1_2, Q8TBB1
DLG3_3, Q92796 = target: T6, DLG3_3, Q92796
Inadl_2, Q8NI35 = target: Inadl_2, Q8NI35
APBA1_2, Q02410 = target: T7, APBA1_2, Q02410
APBA2_1, Q99767 = target: T8, APBA2_1, Q99767
FRMPD2_3, Q68DX3 = target: FRMPD2_3, Q68DX3
LNX1_1, Q8TBB1 = target: LNX1_1, Q8TBB1
GRIP2_4, Q9C0E4 = target: GRIP2_4, Q9C0E4
GRIP2_6, Q9C0E4 = target: GRIP2_6, Q9C0E4
SNTG2, Q9NY99 = target: T9, SNTG2, Q9NY99
MAGI1_1, Q96QZ7 = target: MAGI1_1, Q96QZ7
PTPN13_1, Q12923 = target: T10, PTPN13_1, Q12923
CASK, O14936 = target: CASK, O14936
CASK, O14936, sequence (O14936 487-570): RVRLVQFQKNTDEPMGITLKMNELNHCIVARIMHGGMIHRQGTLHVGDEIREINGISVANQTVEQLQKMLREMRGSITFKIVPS

Inadl_2, Q8NI35, sequence (Q8NI35 238-335): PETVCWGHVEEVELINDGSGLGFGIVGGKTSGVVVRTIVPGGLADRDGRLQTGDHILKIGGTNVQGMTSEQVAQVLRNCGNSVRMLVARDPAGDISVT
GRIP2_5, Q9C0E4, sequence (Q9C0E4 544-642): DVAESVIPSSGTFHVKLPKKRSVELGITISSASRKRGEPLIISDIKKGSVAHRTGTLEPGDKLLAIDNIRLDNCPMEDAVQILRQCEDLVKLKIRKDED
LNX1_1, Q8TBB1, sequence (Q8TBB1 261-371): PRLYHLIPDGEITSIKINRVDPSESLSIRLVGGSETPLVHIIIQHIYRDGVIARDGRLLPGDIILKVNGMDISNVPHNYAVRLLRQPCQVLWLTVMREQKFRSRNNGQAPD
NHERF2_2, Q15599, sequence (Q15599 142-238): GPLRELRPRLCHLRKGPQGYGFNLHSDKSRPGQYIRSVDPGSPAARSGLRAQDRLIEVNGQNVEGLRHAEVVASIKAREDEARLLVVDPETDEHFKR
TJP1_3, Q07157, sequence (Q07157 416-512): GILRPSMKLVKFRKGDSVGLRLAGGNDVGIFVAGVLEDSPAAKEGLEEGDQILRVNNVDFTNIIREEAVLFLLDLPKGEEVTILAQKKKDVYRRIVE
GORASP1, Q9BQQ3, sequence (Q9BQQ3 1-208): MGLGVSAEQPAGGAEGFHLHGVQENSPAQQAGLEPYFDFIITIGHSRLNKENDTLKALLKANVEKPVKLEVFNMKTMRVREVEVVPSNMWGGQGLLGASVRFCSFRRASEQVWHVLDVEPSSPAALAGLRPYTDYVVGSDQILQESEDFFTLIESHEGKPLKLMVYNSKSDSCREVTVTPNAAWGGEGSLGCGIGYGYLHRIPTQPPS
PARD3_3, Q8TEW0, sequence (Q8TEW0 582-685): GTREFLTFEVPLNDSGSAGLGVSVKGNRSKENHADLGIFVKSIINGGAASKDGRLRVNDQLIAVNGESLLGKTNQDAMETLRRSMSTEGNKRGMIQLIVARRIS
GRIP2_6, Q9C0E4, sequence (Q9C0E4 648-740): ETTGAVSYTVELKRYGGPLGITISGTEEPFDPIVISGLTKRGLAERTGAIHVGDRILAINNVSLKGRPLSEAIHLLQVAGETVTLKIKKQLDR
LNX1_2, Q8TBB1, sequence (Q8TBB1 371-470): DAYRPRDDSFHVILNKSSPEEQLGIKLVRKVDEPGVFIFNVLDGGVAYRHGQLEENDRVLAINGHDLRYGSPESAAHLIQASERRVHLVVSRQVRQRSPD
GRIP2_4, Q9C0E4, sequence (Q9C0E4 446-548): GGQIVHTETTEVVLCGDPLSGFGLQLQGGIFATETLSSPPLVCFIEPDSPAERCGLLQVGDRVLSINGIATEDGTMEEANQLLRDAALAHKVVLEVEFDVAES
FRMPD2_3, Q68DX3, sequence (Q68DX3 1073-1166): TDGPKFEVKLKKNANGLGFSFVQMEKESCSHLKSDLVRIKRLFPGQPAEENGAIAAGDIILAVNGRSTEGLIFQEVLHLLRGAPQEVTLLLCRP
GRIP2_3, Q9C0E4, sequence (Q9C0E4 238-339): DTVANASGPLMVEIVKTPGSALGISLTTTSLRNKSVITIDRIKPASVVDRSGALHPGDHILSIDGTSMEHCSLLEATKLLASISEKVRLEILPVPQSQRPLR
FRMPD2_2, Q68DX3, sequence (Q68DX3 944-1038): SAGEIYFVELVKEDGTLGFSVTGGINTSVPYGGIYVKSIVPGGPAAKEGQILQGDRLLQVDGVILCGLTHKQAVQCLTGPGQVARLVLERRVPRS
MAGI1_1, Q96QZ7, sequence (Q96QZ7 1-106): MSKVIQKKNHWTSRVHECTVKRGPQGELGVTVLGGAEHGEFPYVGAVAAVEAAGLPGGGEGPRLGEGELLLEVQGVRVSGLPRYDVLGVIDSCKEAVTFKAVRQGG
LAP2, Q96RT1, sequence (Q96RT1 other isoform, or with tags, fused parts or gaps): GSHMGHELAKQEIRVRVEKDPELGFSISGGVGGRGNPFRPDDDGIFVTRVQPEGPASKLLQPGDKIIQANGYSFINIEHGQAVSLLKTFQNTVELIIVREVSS
HTRA2, O43464, sequence (O43464 355-458): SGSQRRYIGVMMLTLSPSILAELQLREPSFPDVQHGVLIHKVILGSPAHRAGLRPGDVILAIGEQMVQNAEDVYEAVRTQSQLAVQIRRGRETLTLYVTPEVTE

Binder | pKd (TJP1_3, Q07157) | pKd (PARD3B_1, Q8TEW8) | pKd (FRMPD2_2, Q68DX3) | pKd (MPDZ_10, O75970) | pKd (GRIP2_5, Q9C0E4) | pKd (TIAM2, Q8IVF5) | pKd (NHERF3_1, Q5T2W1) | pKd (GRIP2_3, Q9C0E4) | pKd (PARD3_3, Q8TEW0) | pKd (LAP2, Q96RT1) | pKd (GORASP1, Q9BQQ3) | pKd (HTRA2, O43464) | pKd (NHERF2_2, Q15599) | pKd (PDZRN3_1, Q9UPQ7) | pKd (LNX1_2, Q8TBB1) | pKd (DLG3_3, Q92796) | pKd (Inadl_2, Q8NI35) | pKd (APBA1_2, Q02410) | pKd (APBA2_1, Q99767) | pKd (FRMPD2_3, Q68DX3) | further results
VDSTVKVWTC [TRAF7, Q6Q0C0] | below the threshold | 4.42 | below the threshold | below the threshold | below the threshold | 4.22 | below the threshold | below the threshold | 4.66 | below the threshold | 4.15 | 4.68 | below the threshold | below the threshold | 5.3 | below the threshold | 3.65 | 3.5 | below the threshold | 3.71 | pKd (LNX1_1, Q8TBB1): below the threshold; pKd (GRIP2_4, Q9C0E4): below the threshold; pKd (GRIP2_6, Q9C0E4): 4.94; pKd (SNTG2, Q9NY99): 3.49; pKd (MAGI1_1, Q96QZ7): 3.62; pKd (PTPN13_1, Q12923): below the threshold; pKd (CASK, O14936): 3.75
QHKTQLQTLI [BPIFA2, Q96DR5] | below the threshold | 4.22 | below the threshold | below the threshold | below the threshold | below the threshold | 5.29 | below the threshold | 3.83 | below the threshold | 3.73 | below the threshold | 3.58 | 3.65 | below the threshold | below the threshold | below the threshold | below the threshold | below the threshold | below the threshold | pKd (LNX1_1, Q8TBB1): 4.27; pKd (GRIP2_4, Q9C0E4): below the threshold; pKd (GRIP2_6, Q9C0E4): below the threshold; pKd (SNTG2, Q9NY99): 3.63; pKd (MAGI1_1, Q96QZ7): 3.66; pKd (PTPN13_1, Q12923): below the threshold; pKd (CASK, O14936): below the threshold
DDPSTAETVL [ABCA7, Q8IZY2] | below the threshold | 4.65 | below the threshold | below the threshold | below the threshold | 3.99 | 4.64 | below the threshold | 4.56 | 3.71 | below the threshold | below the threshold | 4.42 | 4.09 | below the threshold | below the threshold | below the threshold | below the threshold | below the threshold | below the threshold | pKd (LNX1_1, Q8TBB1): below the threshold; pKd (GRIP2_4, Q9C0E4): below the threshold; pKd (GRIP2_6, Q9C0E4): below the threshold; pKd (SNTG2, Q9NY99): 4.19; pKd (MAGI1_1, Q96QZ7): below the threshold; pKd (PTPN13_1, Q12923): below the threshold; pKd (CASK, O14936): below the threshold
HLRARKSEWV [GJD4, Q96KN9] | 4.67 | below the threshold | below the threshold | below the threshold | below the threshold | 4.1 | 4.08 | below the threshold | below the threshold | 4.11 | 5 | 3.94 | below the threshold | below the threshold | 3.75 | below the threshold | below the threshold | 4.73 | below the threshold | below the threshold | pKd (LNX1_1, Q8TBB1): below the threshold; pKd (GRIP2_4, Q9C0E4): below the threshold; pKd (GRIP2_6, Q9C0E4): below the threshold; pKd (SNTG2, Q9NY99): below the threshold; pKd (MAGI1_1, Q96QZ7): below the threshold; pKd (PTPN13_1, Q12923): below the threshold; pKd (CASK, O14936): below the threshold
PEYLGLDVPV [ERBB2, P04626] | below the threshold | below the threshold | below the threshold | below the threshold | below the threshold | below the threshold | below the threshold | below the threshold | 3.52 | 4.26 | below the threshold | below the threshold | below the threshold | 3.48 | below the threshold | below the threshold | below the threshold | below the threshold | below the threshold | below the threshold | pKd (LNX1_1, Q8TBB1): 3.58; pKd (GRIP2_4, Q9C0E4): below the threshold; pKd (GRIP2_6, Q9C0E4): below the threshold; pKd (SNTG2, Q9NY99): below the threshold; pKd (MAGI1_1, Q96QZ7): below the threshold; pKd (PTPN13_1, Q12923): below the threshold; pKd (CASK, O14936): below the threshold
